Measured values from patent US20160251386A1 (published 2016).

Target: the molecule itself
Assay: SDS gel and Western blot, self-association (dimer band)

B1: secreted form of the factor with tags (94 AA+tags) expressed in E. coli (other)
chain: MEPLAVVDLRPQSSVKVEVHFQDKVEEMSIRLDQTVAELKKHLKTVVQLSTSNMLLFYLDQEAPFGPEEMKYSSRALHSYGIRDGDKIYVEPRMKDDDDKKGEFEAYVEQKLISEEDLNSAVDHHHHHH
notes: Expressed from pTrcHis2-TOPO in E. coli, purified on nickel columns; carries no lipid cofactor; runs at 16 kD with a 32 kD dimer band; also called free factor made in E. coli; E. coli expressed secreted form of the factor
- binding result: binds
